The results in this text go back to PMC4788467 (Leukemia, 2015).

Sequences and labels used below:
B1: Q2L scFv-Fc (Fc fusion)
VH: EVQLLESGGGLVQPGGSLRLSCAASGFTFSSYAMSWVRQAPGKGLEWVSLIDPWGQETLYADSVKGRFTISRDNSKNTLYLQMNSLRAEDTAVYYCAKLTGRFDYWGQGTLVTVSS
VL: DIQMTQSPSSLSASVGDRVTITCRASQSISSYLNWYQQKPGKAPKLLIYSASLLQSGVPSRFSGSGSGTDFTLTISSLQPEDFATYYCQQGPGTPNTFGQGTKVEIK
B2: Q2L scFv (scFv, V domains shown)
VH: B1 VH
VL: B1 VL
B3: S3.6 scFv (scFv, V domains shown)
VH: B1 VH
VL: B1 VL with S31N, L53Q, D70V
B4: Q1L scFv (scFv, V domains shown)
VH: B1 VH
VL: B1 VL with L53Q
B5: S3.3 scFv (scFv, V domains shown)
VH: B1 VH
VL: B1 VL with D1N, S65N
B6: S3.1 scFv (scFv, V domains shown)
VH: B1 VH with R87G
VL: B1 VL with L53Q, S77N

Positions count from the first letter of the chain named. Names may count otherwise.

One assay concerns the target T1, WT1 126-134 (RMFPNAPYL) peptide alone (human).
T1 chain: RMFPNAPYL
Description: ELISA. Background: An ELISA detects its analyte on a solid surface through an enzyme-linked reagent.
As to B1, the binding result was “no binding”.

Regarding B2, the binding result is “no binding”.

The next assay has as its target HLA-A2/WT1 235-243 (…) monomer (Homo sapiens, HLA-A*02:01, biotin (the complex is biotinylated; site not stated)). Kind of assay: ELISA.
As for B1, the binding result is “no binding”.

Consider B2, for which the binding result is on record as “no binding”.

The target in a further assay is HLA-A2/WT1 187-195 (…) monomer (Homo sapiens, HLA-A*02:01, biotin (the complex is biotinylated; site not stated)). Description: ELISA.
For the molecule B1, the binding result is recorded as “no binding”.

On to B2, for which the binding result is “no binding”.

The target in the next assay is biotinylated soluble HLA-A2/WT1_(126) (…) complex (Homo sapiens, HLA-A*02:01, biotin (the complex is biotinylated; site not stated)). Kind of assay: SPR.
B3 registered a Kd of 14.1 nM, a koff of 0.00177 s⁻¹ and a kon of 126000 M⁻¹ s⁻¹.

With B1, the Kd came out at 0.002 nM, the koff was 1.15e-06 s⁻¹ and the kon was determined as 484000 M⁻¹ s⁻¹.

In the case of B4, the affinity, expressed as Kd, was 58.3 nM and the kon stood at 94300 M⁻¹ s⁻¹.

B5: the koff is 5.35e-05 s⁻¹ and the kon turned out to be 22000 M⁻¹ s⁻¹.

Regarding B2, the Kd was 3.08 nM, the off-rate (koff) came to 0.000355 s⁻¹ and the kon came to 115000 M⁻¹ s⁻¹.

In turn, B6 yielded a Kd of 12.9 nM, a dissociation rate constant (koff) of 0.00191 s⁻¹ and an association rate constant (kon) of 148000 M⁻¹ s⁻¹.

In general, Kd refers to a measure of binding affinity in units of concentration. In general, koff refers to a measure of how fast the partners let go of each other. Low readings indicate slow dissociation, high ones fast dissociation. Usually kon stands for a measure of how fast the partners come together. Low readings indicate slow association, high ones fast association.
